{
  "source": "patent US20260335397A1",
  "about": "“TREATMENT OF GEOGRAPHIC ATROPHY” (Apellis Pharmaceuticals, Inc., priority 2022, published 2026)",
  "assay_type_in_all_cases": "in vivo, human",
  "key": {"[1]": {"system": "geographic atrophy (GA) secondary to age-related macular degeneration (AMD)", "experiment": "Post hoc microperimetry perilesional analysis, OAKS study", "conditions": "24 months", "method": "LS means estimated from MMRM analysis. […] Perilesional area defined as −250 μm inside baseline atrophy border to +250 μm outside atrophy border. dB=decibel; LS=least square; M=month; mITT=modified intent-to-treat; MMRM=mixed-effects model for repeated measures; PEOM=pegcetacoplan every other month; PM=pegcetacoplan monthly; SE=standard error.\nA post hoc microperimetry perilesional analysis was performed on patients in the OAKS study to assess whether pegcetacoplan preservation of retinal tissue was reflected in preserved photoreceptor function in retina near GA lesion borders at baseline. Geographic atrophy lesion borders grow at approximately 100-150 microns per year. An assessment was performed of visual function of cells within 250 microns on either side of the lesion border, which are at the highest risk of permanently losing visual function as lesions expand. Reduction of retinal sensitivity as measured by microperimetry reflects loss of function.\nPerilesional area (area within 250 microns of each side of GA lesion border) was created on fundus autofluorescence for each patient, and microperimetry endpoints were assessed within this region (68 spots on grid). In this analysis, approximately 21-22 points (out of 68 total—about one-third) qualified as “peri-lesional” using the 500 micron zone definition (250 inside and 250 outside of GA lesion border). A representative image is depicted as FIG. 5. […] Patients in both monthly (0.564 dB; p=0.0650) and every-other-month (EOM) (0.707 dB; p=0.0202) pegcetacoplan treatment groups lost less retinal sensitivity compared to the sham group over 24 months with increasing effects over time. Scotomatous points measure areas of the retina that have lost all light sensitivity and therefore are no longer functioning. Patients in both monthly (−0.680 points; p=0.1444) and EOM (−1.138 points; p=0.0140) pegcetacoplan treatment groups had fewer new scotomatous points compared to sham over 24 months with increasing effects over time."}, "[2]": {"system": "geographic atrophy (GA) secondary to age-related macular degeneration (AMD)", "experiment": "Post-hoc analysis of BCVA and VFQ-25 by lesion distance from foveal center, OAKS and DERBY", "conditions": "lesions ≥250 μm from foveal center, 24 months", "method": "This Example describes a post-hoc analysis of results from the OAKS and DERBY studies described in Example 1. Functional data by lesion distance from foveal center were assessed over 24 months.\nIn the patient subgroup having lesions ≥250 μm away from the foveal center, pegcetacoplan slowed vision loss and improved quality of life in patients. […] This subgroup included patients in the mITT sample with non-missing baseline measurements of RPE central 3 mm occupancy (C30) in regions 1-5 and lesion distance from fovea center. Mean changes were calculated among patients with BCVA measurements at each timepoint and thus samples varied across outcomes shown with no imputation for missing data. Adjusted differences from bootstrapped inverse probability weighted regressions controlling for baseline C30 in regions 1-5, study and fellow eye GA characteristics, study eye visual acuity, and patient characteristics.\nThis subgroup included patients in the mITT sample with non-missing baseline measurements of RPE central 3 mm occupancy (C3O) in regions 1-5 and lesion distance from fovea center. Mean changes were calculated among patients with BCVA measurements at each timepoint and thus samples varied across outcomes shown with no imputation for missing data. […]"}, "[3]": {"experiment": "Phase 3 safety: TEAEs and tolerability, OAKS and DERBY", "conditions": "for Endophthalmitis (serious ocular TEAE), % / Endophthalmitis (serious ocular TEAE), M (number of events): infectious and non-infectious", "method": "All randomized subjects returned every month to the clinical site for assessments and additional pegcetacoplan or sham injections according to their randomization scheme until Month 12. From Month 12 onwards, subjects return to the clinical site based on their randomized treatment schedule (monthly or EOM) and follow the treatment regimen and assessments outlined in the Visit Schedule until Month 24. Safety was assessed throughout the study by a number of evaluations including: monitoring of AEs, preinjection and postinjection monitoring, blood and urine samples collected, physical examination, vital signs, and follow-up phone calls. Blood samples were also be collected for anti-therapeutic antibodies, genotyping, and clinical repository (if the subject consented to this portion).\nSafety endpoints included incidence and severity of ocular and systemic treatment-emergent adverse events; incidence of ADA directed against pegcetacoplan peptide or PEG; incidence of new active CNV in the study eye; incidence of new onset of subclinical CNV in the study eye; incidence of subjects who lost letters based on NL-BCVA categories (≥15, ≥15-<30, ≥30 ETDRS letters); change/shift from baseline in clinical labs and incidence of abnormal lab values; change from baseline in vital signs and incidence of abnormal vital sign results; shift from baseline in ocular examination assessments including slit-lamp examination and indirect ophthalmoscopy; change from baseline in Intra Ocular Pressure (IOP) and incidence of IOP above specified thresholds; and change/shift from baseline in ocular imaging assessments (including specular microscopy; select sites).\nThe Safety set consisted of all subjects randomized who received at least one injection of pegcetacoplan or sham. Subjects were analyzed according to the actual treatment received. […] This population was used for all safety analyses."}, "[4]": {"conditions": "DERBY, PEOM (N = 208), 24 months"}, "[5]": {"conditions": "OAKS, PEOM (N = 212), 24 months"}},
  "data": [
    {"substance": "Poly(oxy-1,2-ethanediyl), α-hydro-ω-hydroxy-, 15,15′-diester with N-acetyl-L-isoleucyl-L-cysteinyl-L-valyl-1-methyl-L-tryptophyl-L-glutaminyl-L-α-aspartyl-L-tryptophylglycyl-L-alanyl-L-histidyl-L-arginyl-L-cysteinyl-L-threonyl-2-[2-(2-aminoethoxy)ethoxy]acetyl-N^6-carboxy-L-lysinamide cyclic (2->12)-(disulfide) [pegcetacoplan]", "values": [
      {"measurement": "microperimetry measures, perilesional", "setting": "[1]; all p-values nominal", "result": "positive trends in microperimetry measures"},
      {"measurement": "new scotomatous points (perilesional) compared to sham", "setting": "[1]; EOM, p=0.0140 (nominal)", "result": "−1.138", "unit": "points"},
      {"measurement": "less loss of retinal sensitivity (perilesional mean threshold sensitivity) compared to sham", "setting": "[1]; every-other-month (EOM), p=0.0202 (nominal)", "result": 0.707, "unit": "dB"},
      {"measurement": "less loss of retinal sensitivity (perilesional mean threshold sensitivity) compared to sham", "setting": "[1]; monthly, p=0.0650 (nominal)", "result": 0.564, "unit": "dB"},
      {"measurement": "new scotomatous points (perilesional) compared to sham", "setting": "[1]; monthly, p=0.1444 (nominal)", "result": "−0.680", "unit": "points"},
      {"measurement": "quality of life assessed by VFQ-25, better relative to sham", "setting": "[2]", "result": "over 4 points"},
      {"measurement": "BCVA change from baseline, relative to sham", "setting": "[2]; monthly and every other month combined, baseline BCVA 73 (sham 75)", "result": "less of a BCVA change from baseline at 24 months"},
      {"measurement": "All TEAEs, %", "setting": "[3]; [4]", "result": "(86.5%)"},
      {"measurement": "Iridocyclitis (serious ocular TEAE), %", "setting": "[3]; [4]", "result": 0.5, "unit": "%"},
      {"measurement": "Iridocyclitis (serious ocular TEAE), M (number of events)", "setting": "[3]; [4]", "result": 1, "unit": "M"},
      {"measurement": "Non-ocular TEAEs, patients, %", "setting": "[3]; [4]", "result": "(68.3%)"},
      {"measurement": "Ocular TEAEs in study eye, patients, %", "setting": "[3]; [4]", "result": "(51.9%)"},
      {"measurement": "Serious ocular TEAEs in the study eye, %", "setting": "[3]; [4]", "result": 1.0, "unit": "%"},
      {"measurement": "Serious ocular TEAEs in the study eye, M (number of events)", "setting": "[3]; [4]", "result": 4, "unit": "M"},
      {"measurement": "Uveitis (serious ocular TEAE), %", "setting": "[3]; [4]", "result": 1.0, "unit": "%"},
      {"measurement": "Uveitis (serious ocular TEAE), M (number of events)", "setting": "[3]; [4]", "result": 2, "unit": "M"},
      {"measurement": "Visual acuity reduced (serious ocular TEAE), %", "setting": "[3]; [4]", "result": 0.5, "unit": "%"},
      {"measurement": "Visual acuity reduced (serious ocular TEAE), M (number of events)", "setting": "[3]; [4]", "result": 1, "unit": "M"},
      {"measurement": "All TEAEs, %", "setting": "[3]; DERBY, PM (N = 206), 24 months", "result": "(86.4%)"},
      {"measurement": "Non-ocular TEAEs, patients, %", "setting": "[3]; DERBY, PM (N = 206), 24 months", "result": "(79.1%)"},
      {"measurement": "Ocular TEAEs in study eye, patients, %", "setting": "[3]; DERBY, PM (N = 206), 24 months", "result": "(60.7%)"},
      {"measurement": "Optic ischemic neuropathy (serious ocular TEAE), %", "setting": "[3]; DERBY, PM (N = 206), 24 months", "result": 0.5, "unit": "%"},
      {"measurement": "Optic ischemic neuropathy (serious ocular TEAE), M (number of events)", "setting": "[3]; DERBY, PM (N = 206), 24 months", "result": 1, "unit": "M"},
      {"measurement": "Retinal tear (serious ocular TEAE), %", "setting": "[3]; DERBY, PM (N = 206), 24 months", "result": 0.5, "unit": "%"},
      {"measurement": "Retinal tear (serious ocular TEAE), M (number of events)", "setting": "[3]; DERBY, PM (N = 206), 24 months", "result": 1, "unit": "M"},
      {"measurement": "Serious ocular TEAEs in the study eye, %", "setting": "[3]; DERBY, PM (N = 206), 24 months", "result": 1.9, "unit": "%"},
      {"measurement": "Serious ocular TEAEs in the study eye, M (number of events)", "setting": "[3]; DERBY, PM (N = 206), 24 months", "result": 4, "unit": "M"},
      {"measurement": "Vitritis (serious ocular TEAE), %", "setting": "[3]; DERBY, PM (N = 206), 24 months", "result": 1.0, "unit": "%"},
      {"measurement": "Vitritis (serious ocular TEAE), M (number of events)", "setting": "[3]; DERBY, PM (N = 206), 24 months", "result": 2, "unit": "M"},
      {"measurement": "All TEAEs, %", "setting": "[3]; [5]", "result": "(88.2%)"},
      {"measurement": "Non-ocular TEAEs, patients, %", "setting": "[3]; [5]", "result": "(77.8%)"},
      {"measurement": "Ocular TEAEs in study eye, patients, %", "setting": "[3]; [5]", "result": "(58.0%)"},
      {"measurement": "Retinal detachment (serious ocular TEAE), %", "setting": "[3]; [5]", "result": 0.5, "unit": "%"},
      {"measurement": "Retinal detachment (serious ocular TEAE), M (number of events)", "setting": "[3]; [5]", "result": 1, "unit": "M"},
      {"measurement": "Serious ocular TEAEs in the study eye, %", "setting": "[3]; [5]", "result": 1.9, "unit": "%"},
      {"measurement": "Serious ocular TEAEs in the study eye, M (number of events)", "setting": "[3]; [5]", "result": 4, "unit": "M"},
      {"measurement": "Endophthalmitis (serious ocular TEAE), %", "setting": "[3]; [5]", "result": 1.4, "unit": "%"},
      {"measurement": "Endophthalmitis (serious ocular TEAE), M (number of events)", "setting": "[3]; [5]", "result": 3, "unit": "M"},
      {"measurement": "All TEAEs, %", "setting": "[3]; OAKS, PM (N = 213), 24 months", "result": "(90.1%)"},
      {"measurement": "Hyphema (serious ocular TEAE), %", "setting": "[3]; OAKS, PM (N = 213), 24 months", "result": 0.5, "unit": "%"},
      {"measurement": "Hyphema (serious ocular TEAE), M (number of events)", "setting": "[3]; OAKS, PM (N = 213), 24 months", "result": 1, "unit": "M"},
      {"measurement": "Non-ocular TEAEs, patients, %", "setting": "[3]; OAKS, PM (N = 213), 24 months", "result": "(81.7%)"},
      {"measurement": "Ocular TEAEs in study eye, patients, %", "setting": "[3]; OAKS, PM (N = 213), 24 months", "result": "(62.4%)"},
      {"measurement": "Optic ischemic neuropathy (serious ocular TEAE), %", "setting": "[3]; OAKS, PM (N = 213), 24 months", "result": 0.9, "unit": "%"},
      {"measurement": "Optic ischemic neuropathy (serious ocular TEAE), M (number of events)", "setting": "[3]; OAKS, PM (N = 213), 24 months", "result": 2, "unit": "M"},
      {"measurement": "Papilledema (serious ocular TEAE), %", "setting": "[3]; OAKS, PM (N = 213), 24 months", "result": 0.5, "unit": "%"},
      {"measurement": "Papilledema (serious ocular TEAE), M (number of events)", "setting": "[3]; OAKS, PM (N = 213), 24 months", "result": 1, "unit": "M"},
      {"measurement": "Retinal detachment (serious ocular TEAE), %", "setting": "[3]; OAKS, PM (N = 213), 24 months", "result": 0.5, "unit": "%"},
      {"measurement": "Retinal detachment (serious ocular TEAE), M (number of events)", "setting": "[3]; OAKS, PM (N = 213), 24 months", "result": 1, "unit": "M"},
      {"measurement": "Serious ocular TEAEs in the study eye, %", "setting": "[3]; OAKS, PM (N = 213), 24 months", "result": 2.3, "unit": "%"},
      {"measurement": "Serious ocular TEAEs in the study eye, M (number of events)", "setting": "[3]; OAKS, PM (N = 213), 24 months", "result": 7, "unit": "M"},
      {"measurement": "Endophthalmitis (serious ocular TEAE), %", "setting": "[3]; OAKS, PM (N = 213), 24 months", "result": 0.9, "unit": "%"},
      {"measurement": "Endophthalmitis (serious ocular TEAE), M (number of events)", "setting": "[3]; OAKS, PM (N = 213), 24 months", "result": 2, "unit": "M"},
      {"measurement": "tolerability", "setting": "[3]; both Phase 3 studies", "result": "well tolerated"}
    ]}
  ]
}
